For data set [1], the target named is RutR AcK11 K11AcK (Escherichia coli K12?) (UniProt P0ACU2). Nature of the data set: ITC. Particulars: ITC: 100 mM potassium phosphate pH 6.4, 150 mM NaCl, 5 mM MgCl2, 2 mM b-ME, 20 or 25 C; SPR: 100 mM potassium phosphate pH 6.4, 300 mM NaCl, 0.05% Tween20 ….
The target in data set [2] is RutR AcK150 K150AcK (Escherichia coli K12?) (UniProt P0ACU2). Nature of the data set: ITC. Particulars: ITC: 100 mM potassium phosphate pH 6.4, 150 mM NaCl, 5 mM MgCl2, 2 mM b-ME, 20 or 25 C; SPR: 100 mM potassium phosphate pH 6.4, 300 mM NaCl, 0.05% Tween20 ….
Data set [3] concerns the target RutR AcK21 K21AcK (Escherichia coli K12?) (UniProt P0ACU2). Nature of the data set: ITC. Particulars: ITC: 100 mM potassium phosphate pH 6.4, 150 mM NaCl, 5 mM MgCl2, 2 mM b-ME, 20 or 25 C; SPR: 100 mM potassium phosphate pH 6.4, 300 mM NaCl, 0.05% Tween20 ….
Data set [4] has as its target RutR AcK62 K62AcK (Escherichia coli K12?) (UniProt P0ACU2). The data set can be described thus: ITC. The conditions noted are these: ITC: 100 mM potassium phosphate pH 6.4, 150 mM NaCl, 5 mM MgCl2, 2 mM b-ME, 20 or 25 C; SPR: 100 mM potassium phosphate pH 6.4, 300 mM NaCl, 0.05% Tween20 ….
For data set [5], the target named is RutR AcK7 K7AcK (Escherichia coli K12?) (UniProt P0ACU2). The data set can be described thus: ITC. The conditions noted are these: ITC: 100 mM potassium phosphate pH 6.4, 150 mM NaCl, 5 mM MgCl2, 2 mM b-ME, 20 or 25 C; SPR: 100 mM potassium phosphate pH 6.4, 300 mM NaCl, 0.05% Tween20 ….
In data set [6] the target is RutR AcK7/11 K7AcK;K11AcK (Escherichia coli K12?) (UniProt P0ACU2). The data set can be described thus: ITC. The conditions noted are these: ITC: 100 mM potassium phosphate pH 6.4, 150 mM NaCl, 5 mM MgCl2, 2 mM b-ME, 20 or 25 C; SPR: 100 mM potassium phosphate pH 6.4, 300 mM NaCl, 0.05% Tween20 ….
In data set [7] the target is RutR AcK95 K95AcK (Escherichia coli K12?) (UniProt P0ACU2). The data set can be described thus: ITC. The conditions noted are these: ITC: 100 mM potassium phosphate pH 6.4, 150 mM NaCl, 5 mM MgCl2, 2 mM b-ME, 20 or 25 C; SPR: 100 mM potassium phosphate pH 6.4, 300 mM NaCl, 0.05% Tween20 ….
Data set [8] has as its target RutR AcK7 K7AcK (Escherichia coli K12?) (UniProt P0ACU2). The data set can be described thus: SPR. The conditions noted are these: ITC: 100 mM potassium phosphate pH 6.4, 150 mM NaCl, 5 mM MgCl2, 2 mM b-ME, 20 or 25 C; SPR: 100 mM potassium phosphate pH 6.4, 300 mM NaCl, 0.05% Tween20 ….
Data set [9] deals with RutR AcK7/11 K7AcK;K11AcK (Escherichia coli K12?) (UniProt P0ACU2). The data set can be described thus: SPR. Particulars: ITC: 100 mM potassium phosphate pH 6.4, 150 mM NaCl, 5 mM MgCl2, 2 mM b-ME, 20 or 25 C; SPR: 100 mM potassium phosphate pH 6.4, 300 mM NaCl, 0.05% Tween20 ….
The next data set deals with T1, RutR WT (UniProt P0ACU2 1-212).
T1 sequence: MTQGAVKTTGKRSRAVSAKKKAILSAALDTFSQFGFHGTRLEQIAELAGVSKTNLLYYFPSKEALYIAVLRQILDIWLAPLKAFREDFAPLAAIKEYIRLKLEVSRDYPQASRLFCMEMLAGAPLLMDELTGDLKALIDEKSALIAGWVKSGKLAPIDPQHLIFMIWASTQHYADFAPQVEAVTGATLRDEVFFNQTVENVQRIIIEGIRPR
Nature of the data set: SPR; ITC: 100 mM potassium phosphate pH 6.4, 150 mM NaCl, 5 mM MgCl2, 2 mM b-ME, 20 or 25 C; SPR: 100 mM potassium phosphate pH 6.4, 300 mM NaCl, 0.05% Tween20, 25 C; EMSA: 20 mM Tris-HCl pH 7.5, 100 mM KCl, 2 mM DTT, 10% glycerol, 25 nM DNA, 30 C. The conditions noted are these: protein: recombinant; tags: His6; chain copies: 2; blunt.

On to “GTTTTAATGTAAATTTTGACCATTTGGTCCACTTTTTTCTGCTCGT (double strand) [boxcarA]”, for which the dissociation constant (Kd) – broadly, the free concentration of one partner at which half of the binding sites on the other are occupied at equilibrium, for simple one-to-one binding – in [1] was found to be 82 nM; in data set [2], 40 nM; in data set [3] it was 12 nM; in data set [4] it was 1120 nM; in data set [5], 73 nM; in data set [6], 300 nM. Besides, in data set [7], the Kd stood at 19 nM.

“GTTTTATGTGCAACTGTTTTGACCGTTTAGTCCACTTTTTACCAGATATTTTAG (double strand) [biotin-boxrutA]”: the Kd in [8] is 9.06 nM; in [9] it was 76.2 nM.

B1: biotin-boxrutA (dsDNA)
DNA 1: GTTTTATGTGCAACTGTTTTGACCGTTTAGTCCACTTTTTACCAGATATTTTAG
DNA 2: CTAAAATATCTGGTAAAAAGTGGACTAAACGGTCAAAACAGTTGCACATAAAAC
In the case of B1, the Kd with RutR WT worked out at 4.27 ± 1.19 nM.

For the origin of these results see article PMC10891134, “Bacteria employ lysine acetylation of transcriptional regulators to adapt gene expression to cellular metabolism” (Nature Communications, 2024).
